Assay results as given in article doi:10.1101/2021.03.04.434028 (bioRxiv, 2021).
Like-named read-outs stand apart in the source and are kept apart here.

B3: HigA antitoxin of the His6-HigBHigA complex (natural protein, Proteus vulgaris (plasmid Rts1), UniProt Q7A224 1-104, looked up)
chain: MRQFKVSHPGEMIARDLEDMGVSGRRFAHNIGVTPATVSRLLAGKTALTPSLSIRIAAALGSTPEFWLRLQSNYDLRQLENQIDTSGIVLYGESNEQQQNAQEH

Assays:
[1] = test system: HigB (of wild-type HigB2HigA2 complex);HigA (of wild-type HigB2HigA2 complex) (Proteus vulgaris (plasmid Rts1);Proteus vulgaris (plasmid Rts1)); experiment: EMSA; details: binding buffer pH not stated ([…]
[2] = biological target: the molecule itself; experiment: crystal structure
[3] = biological target: B3; experiment: crystal structure
[4] = biological target: the molecule itself; experiment: crystal structure; remark: listed apart in the source
[5] = biological target: T1, HigA antitoxin of the complexes analysed by size exclusion chromatography (Proteus vulgaris (plasmid Rts1), UniProt Q7A224 1-104); experiment: SEC
T1 sequence (looked up): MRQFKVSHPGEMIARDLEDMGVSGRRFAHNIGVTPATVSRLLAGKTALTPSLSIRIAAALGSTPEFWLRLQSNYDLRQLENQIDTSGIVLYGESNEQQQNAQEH

Question: For O1-O2(scrambled) (O1 only), which Kd [1] is on record?
Answer: Its Kd is 360 nM.

Question: Which Kd [1] does the source give for O1(scrambled)-O2 (O2 only) here?
Answer: Its Kd is 240 nM.

B1: HigA antitoxin with C-terminal His6 tag of the HigBHigA-His6 complex (selenomethionine-derivatized) (natural protein, Proteus vulgaris (plasmid Rts1), UniProt Q7A224 1-104, looked up)
chain: MRQFKVSHPGEMIARDLEDMGVSGRRFAHNIGVTPATVSRLLAGKTALTPSLSIRIAAALGSTPEFWLRLQSNYDLRQLENQIDTSGIVLYGESNEQQQNAQEH
modifications: selenomethionine-derivatized
Question: How did the “stoichiometry N” value [2] turn out when B1 was run?
Answer: The value was 2.

B2: HigB toxin of the His6-HigBHigA complex (natural protein)
chain: MIKSFKHKGLKLLFEKGVTSGVPAQDVDRINDRLQAIDTATEIGELNRQIYKLHPLKGDREGYWSITVRANWRITFQFINGDAYILNYEDYH
Question: Does B2 bind [3]?
Answer: Result: binds

Question: How did the “stoichiometry N” value [4] turn out when B3 was run?
Answer: Its value is 2.

B4: HigB(L5ext), HigB with loop 5 extended by NGNG (natural protein)
chain: MIKSFKHKGLKLLFEKGVTSGVPAQDVDRINDRLQAIDTATEIGELNRQIYKLHPLKGDREGYWSITVRANWRITFQFINGDNGNGAYILNYEDYH
Question: Does B4 bind [5]?
Answer: Result: binds

B5: Wild-type HigB toxin of the HigB2HigA2 complex analysed by size exclusion chromatography (natural protein)
chain: MIKSFKHKGLKLLFEKGVTSGVPAQDVDRINDRLQAIDTATEIGELNRQIYKLHPLKGDREGYWSITVRANWRITFQFINGDAYILNYEDYH
Question: Does B5 bind [5]?
Answer: Result: binds
